Positions count from the first letter of the chain named.
B1: SRP2193-D02 (antibody, IgG1, V domains shown)
VH: EVQLVESGGGLVQPGGSLRLSCAASGFNIKDYYIHWVRQAPGKGLEWVGAIDPESGSTVYADSVKGRFTISADTSKNTAYLQMNSLRAEDTAVYYCARSRWFRVLWSYVFDYWGQGTLVTVSS
VL: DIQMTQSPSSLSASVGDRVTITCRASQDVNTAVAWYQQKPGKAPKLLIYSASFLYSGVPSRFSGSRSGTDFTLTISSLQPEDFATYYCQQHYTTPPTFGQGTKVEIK
notes: His/FLAG-tagged IgG1, cell-free
B2: SRP2193-D05 (antibody, IgG1, V domains shown)
VH: B1 VH with K30N, Y32H, E54N
VL: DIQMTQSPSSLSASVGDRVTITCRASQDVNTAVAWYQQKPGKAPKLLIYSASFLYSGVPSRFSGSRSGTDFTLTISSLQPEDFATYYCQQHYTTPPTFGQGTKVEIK
notes: His/FLAG-tagged IgG1, cell-free; also called Antibody 78
B3: SRP2193-B06 (antibody, IgG1, V domains shown)
VH: B1 VH with K30D, D31G, G49A, E54H, S55P, S107T
VL: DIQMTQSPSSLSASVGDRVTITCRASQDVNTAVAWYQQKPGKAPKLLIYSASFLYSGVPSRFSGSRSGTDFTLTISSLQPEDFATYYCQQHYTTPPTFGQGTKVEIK
notes: as for B1
B4: SRP2193-B01 (antibody, IgG1, V domains shown)
VH: B1 VH with K30G, D31G, E54R, S57Y, Y108F, F110L
VL: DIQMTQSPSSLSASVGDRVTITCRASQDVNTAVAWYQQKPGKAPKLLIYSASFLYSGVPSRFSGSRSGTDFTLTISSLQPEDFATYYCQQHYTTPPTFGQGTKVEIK
notes: as for B1
B5: Conjugate 22 (D04-Y180/F404-LP11) (antibody, human IgG1, kappa)
heavy: MEVQLVESGGGLVQPGGSLRLSCAASGFNISDYDIHWVRQAPGKGLEWVGGIDPADGSTDYADSVKGRFTISADTSKNTAYLQMNSLRAEDTAVYYCARDYGVYDYWGQGTLVTVSSASTKGPSVFPLAPSSKSTSGGTAALGCLVKDYFPEPVTVSWNSGALTSGVHTFPAVLQSSGLSLSSVVTVPSSSLGTQTYICNVNHKPSNTKVDKKVEPKSCDKTHTCPPCPAPELLGGPSVFLFPPKPKDTLMISRTPEVTCVVVDVSHEDPEVKFNWYVDGVEVHNAKTKPREEQYNSTYRVVSVLTVLHQDWLNGKEYKCKVSNKALPAPIEKTISKAKGQPREPQVYTLPPSREEMTKNQVSLTCLVKGFYPSDIAVEWESNGQPENNYKTTPPVLDSDGSFLYSKLTVDKSRWQQGNVFSCSVMHEALHNHYTQKSLSLSPGK
light: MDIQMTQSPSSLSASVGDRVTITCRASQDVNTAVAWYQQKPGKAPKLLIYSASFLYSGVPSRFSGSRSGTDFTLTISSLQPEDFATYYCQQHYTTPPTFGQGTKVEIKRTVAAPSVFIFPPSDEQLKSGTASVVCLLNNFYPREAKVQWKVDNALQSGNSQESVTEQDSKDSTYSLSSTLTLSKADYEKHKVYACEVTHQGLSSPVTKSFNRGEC
modifications: pAMF at Y180 and F404 (EU), each linked to LP11
B6: D04-Y180/F404-LP32 (printed under conjugate number 21, DAR 3.85) (antibody, human IgG1, kappa)
heavy: B5 heavy
light: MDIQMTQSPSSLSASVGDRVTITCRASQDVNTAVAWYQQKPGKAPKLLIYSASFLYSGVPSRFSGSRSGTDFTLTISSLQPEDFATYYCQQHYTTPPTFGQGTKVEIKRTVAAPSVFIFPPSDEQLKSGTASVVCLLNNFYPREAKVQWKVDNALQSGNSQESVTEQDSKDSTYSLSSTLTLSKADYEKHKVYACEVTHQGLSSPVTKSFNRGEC
modifications: pAMF at Y180 and F404 (EU), each linked to LP32
B7: Conjugate 1 (D04-Y180/F404-LP1) (antibody, human IgG1, kappa)
heavy: B5 heavy
light: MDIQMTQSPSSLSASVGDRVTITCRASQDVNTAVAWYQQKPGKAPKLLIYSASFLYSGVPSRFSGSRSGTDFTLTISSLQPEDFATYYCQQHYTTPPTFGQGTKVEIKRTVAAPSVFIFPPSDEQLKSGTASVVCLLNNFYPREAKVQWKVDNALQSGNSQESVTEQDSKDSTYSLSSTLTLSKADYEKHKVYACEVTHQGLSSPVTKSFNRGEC
modifications: pAMF at Y180 and F404 (EU), each linked to LP1
B8: Conjugate 28 (A05 x B04-F404-LP8 biparatopic) (bispecific antibody, human IgG1, kappa)
heavy 1: MEVQLVESGGGLVQPGGSLRLSCAASGFNIKEYHIHWVRQAPGKGLEWVGYISPNSGSTYYADSVKGRFTISADTSKNTAYLQMNSLRAEDTAVYYCARDHRRYVRPFDYWGQGTLVTVSSASTKGPSVFPLAPSSKSTSGGTAALGCLVKDYFPEPVTVSWNSGALTSGVHTFPAVLQSSGLYSLSSVVTVPSSSLGTQTYICNVNHKPSNTKVDKKVEPKSCDKTHTCPPCPAPELLGGPSVFLFPPKPKDTLMISRTPEVTCVVVDVSHEDPEVKFNWYVDGVEVHNAKTKPREEQYNSTYRVVSVLTVLHQDWLNGKEYKCKVSNKALPAPIEKTISKAKGQPREPQVYTLPPSREEMTKNQVSLWCLVKGFYPSDIAVEWESNGQPENNYKTTPPVLDSDGSFLYSKLTVDKSRWQQGNVFSCSVMHEALHNHYTQKSLSLSPGK
heavy 2: MEVQLVESGGGLVQPGGSLRLSCAASGFNIAGYAIHWVRQAPGKGLEWVGLITPTPGTSNYADSVKGRFTISVDTSKNTAYLQMNSLRAEDTAAYYCARDYRGVYLYSFYYDYWGQGTLVTVSSASTKGPSVFPLAPSSKSTSGGTAALGCLVKDYFPEPVTVSWNSGALTSGVHTFPAVLQSSGLYSLSSVVTVPSSSLGTQTYICNVNHKPSNTKVDKKVEPKSCDKTHTCPPCPAPELLGGPSVFLFPPKPKDTLMISRTPEVTCVVVDVSHEDPEVKFNWYVDGVEVHNAKTKPREEQYNSTYRVVSVLTVLHQDWLNGKEYKCKVSNKALPAPIEKTISKAKGQPREPQVYTLPPSREEMTKNQVSLSCAVKGFYPSDIAVEWESNGQPENNYKTTPPVLDSDGSFLVSKLTVDKSRWQQGNVFSCSVMHEALHNHYTQKSLSLSPGK
light: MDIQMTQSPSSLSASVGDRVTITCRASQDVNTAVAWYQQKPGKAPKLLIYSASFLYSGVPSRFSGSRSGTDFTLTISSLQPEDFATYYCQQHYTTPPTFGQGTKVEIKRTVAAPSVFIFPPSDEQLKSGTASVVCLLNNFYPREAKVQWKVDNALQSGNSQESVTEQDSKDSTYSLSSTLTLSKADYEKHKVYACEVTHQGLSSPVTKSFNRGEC
modifications: pAMF at F404 (EU), linked to LP8
B9: Conjugate 29 (A05 x C06-F404-LP8 biparatopic) (bispecific antibody, human IgG1, kappa)
heavy 1: B8 heavy 1
heavy 2: MEVQLVESGGGLVQPGGSLRLSCAASGFNITSYGIHWVRQAPGKGLEWVGWIAPNSGNTYYADSVKGRFTISADTSKNTAYLQMNSLRAEDTAVYYCARDIVSTYSYYYLMDYWGQGTLVTVSSASTKGPSVFPLAPSSKSTSGGTAALGCLVKDYFPEPVTVSWNSGALTSGVHTFPAVLQSSGLYSLSSVVTVPSSSLGTQTYICNVNHKPSNTKVDKKVEPKSCDKTHTCPPCPAPELLGGPSVFLFPPKPKDTLMISRTPEVTCVVVDVSHEDPEVKFNWYVDGVEVHNAKTKPREEQYNSTYRVVSVLTVLHQDWLNGKEYKCKVSNKALPAPIEKTISKAKGQPREPQVYTLPPSREEMTKNQVSLSCAVKGFYPSDIAVEWESNGQPENNYKTTPPVLDSDGSFLVSKLTVDKSRWQQGNVFSCSVMHEALHNHYTQKSLSLSPGK
light: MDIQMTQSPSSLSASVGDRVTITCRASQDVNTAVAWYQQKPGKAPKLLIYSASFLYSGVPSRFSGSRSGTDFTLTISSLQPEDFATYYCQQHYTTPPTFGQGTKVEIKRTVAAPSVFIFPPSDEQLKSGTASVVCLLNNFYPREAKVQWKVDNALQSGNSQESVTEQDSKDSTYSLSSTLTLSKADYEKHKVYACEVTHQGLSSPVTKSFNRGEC
modifications: pAMF at F404 (EU), linked to LP8
B10: Conjugate 21 (D04-F404-LP32) (antibody, human IgG1, kappa)
heavy: MEVQLVESGGGLVQPGGSLRLSCAASGFNISDYDIHWVRQAPGKGLEWVGGIDPADGSTDYADSVKGRFTISADTSKNTAYLQMNSLRAEDTAVYYCARDYGVYDYWGQGTLVTVSSASTKGPSVFPLAPSSKSTSGGTAALGCLVKDYFPEPVTVSWNSGALTSGVHTFPAVLQSSGLYSLSSVVTVPSSSLGTQTYICNVNHKPSNTKVDKKVEPKSCDKTHTCPPCPAPELLGGPSVFLFPPKPKDTLMISRTPEVTCVVVDVSHEDPEVKFNWYVDGVEVHNAKTKPREEQYNSTYRVVSVLTVLHQDWLNGKEYKCKVSNKALPAPIEKTISKAKGQPREPQVYTLPPSREEMTKNQVSLTCLVKGFYPSDIAVEWESNGQPENNYKTTPPVLDSDGSFLYSKLTVDKSRWQQGNVFSCSVMHEALHNHYTQKSLSLSPGK
light: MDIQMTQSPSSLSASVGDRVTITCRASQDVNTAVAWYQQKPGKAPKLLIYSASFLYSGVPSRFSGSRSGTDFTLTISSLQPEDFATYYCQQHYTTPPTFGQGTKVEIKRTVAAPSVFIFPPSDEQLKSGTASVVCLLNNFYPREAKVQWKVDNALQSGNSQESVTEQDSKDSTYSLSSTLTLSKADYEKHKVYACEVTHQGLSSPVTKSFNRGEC
modifications: pAMF at F404 (EU), linked to LP32
B11: Conjugate 26 (D04 x A05-F404-LP8 biparatopic) (bispecific antibody, human IgG1, kappa)
heavy 1: B10 heavy with T366W
heavy 2: B8 heavy 1 with W370S, L372A, Y410V
light: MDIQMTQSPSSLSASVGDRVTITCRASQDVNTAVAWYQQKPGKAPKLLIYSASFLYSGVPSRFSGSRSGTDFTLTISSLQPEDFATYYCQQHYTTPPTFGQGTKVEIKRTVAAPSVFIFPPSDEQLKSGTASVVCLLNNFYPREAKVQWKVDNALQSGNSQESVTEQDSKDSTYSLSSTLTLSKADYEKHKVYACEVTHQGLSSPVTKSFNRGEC
modifications: pAMF at F404 (EU), linked to LP8
B12: Conjugate 23 (D04 x D04-F404-LP8) (antibody, human IgG1, kappa)
heavy 1: B10 heavy with T366W
heavy 2: B10 heavy with T366S, L368A, Y406V
light: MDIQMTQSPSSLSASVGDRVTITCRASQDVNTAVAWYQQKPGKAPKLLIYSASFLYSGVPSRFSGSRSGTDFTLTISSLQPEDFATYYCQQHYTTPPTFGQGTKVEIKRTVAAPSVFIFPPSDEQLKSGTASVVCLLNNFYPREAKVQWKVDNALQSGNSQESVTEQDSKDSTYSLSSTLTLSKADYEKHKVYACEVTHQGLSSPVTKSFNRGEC
modifications: pAMF at F404 (EU), linked to LP8
B13: Conjugate 25 (D04 x B09-F404-LP8 biparatopic) (bispecific antibody, human IgG1, kappa)
heavy 1: B10 heavy with T366W
heavy 2: MEVQLVESGGGLVQPGGSLRLSCAASGFNINNSYIHWVRQAPGKGLEWVGIIDPNNGSTAYADSVKGRFTISADTSKNTAYLQMNSLRAEDTAVYYCARSRWYRVLWSYVLDYWGQGTLVTVSSASTKGPSVFPLAPSSKSTSGGTAALGCLVKDYFPEPVTVSWNSGALTSGVHTFPAVLQSSGLYSLSSVVTVPSSSLGTQTYICNVNHKPSNTKVDKKVEPKSCDKTHTCPPCPAPELLGGPSVFLFPPKPKDTLMISRTPEVTCVVVDVSHEDPEVKFNWYVDGVEVHNAKTKPREEQYNSTYRVVSVLTVLHQDWLNGKEYKCKVSNKALPAPIEKTISKAKGQPREPQVYTLPPSREEMTKNQVSLSCAVKGFYPSDIAVEWESNGQPENNYKTTPPVLDSDGSFLVSKLTVDKSRWQQGNVFSCSVMHEALHNHYTQKSLSLSPGK
light: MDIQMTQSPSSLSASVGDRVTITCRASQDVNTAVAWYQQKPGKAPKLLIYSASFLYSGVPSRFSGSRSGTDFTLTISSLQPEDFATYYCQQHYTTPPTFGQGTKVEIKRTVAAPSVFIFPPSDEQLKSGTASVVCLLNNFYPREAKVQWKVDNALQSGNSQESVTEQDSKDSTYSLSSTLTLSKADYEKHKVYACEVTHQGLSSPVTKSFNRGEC
modifications: pAMF at F404 (EU), linked to LP8
B14: Conjugate 24 (D04 x C01-F404-LP8 biparatopic) (bispecific antibody, human IgG1, kappa)
heavy 1: B10 heavy with T366W
heavy 2: B10 heavy with S31N, D32G, G51Y, A55N, S58A, D60N, Y104F, T366S, L368A, Y406V
light: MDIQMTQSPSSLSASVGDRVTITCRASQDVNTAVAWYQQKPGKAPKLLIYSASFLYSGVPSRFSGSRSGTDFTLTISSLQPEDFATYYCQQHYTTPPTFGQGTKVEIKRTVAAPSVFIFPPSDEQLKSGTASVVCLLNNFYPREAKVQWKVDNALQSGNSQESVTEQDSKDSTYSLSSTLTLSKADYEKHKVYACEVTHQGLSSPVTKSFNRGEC
modifications: pAMF at F404 (EU), linked to LP8
B15: Conjugate 19 (D04-F404-LP30) (antibody, human IgG1, kappa)
heavy: B10 heavy
light: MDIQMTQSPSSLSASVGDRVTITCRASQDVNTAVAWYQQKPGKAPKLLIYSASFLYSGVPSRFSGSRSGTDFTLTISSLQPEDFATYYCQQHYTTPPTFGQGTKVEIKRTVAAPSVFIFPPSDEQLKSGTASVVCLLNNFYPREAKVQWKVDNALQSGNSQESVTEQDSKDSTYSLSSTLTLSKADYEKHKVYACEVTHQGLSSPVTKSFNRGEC
modifications: pAMF at F404 (EU), linked to LP30
B16: Conjugate 27 (D04 x B04-F404-LP8 biparatopic) (bispecific antibody, human IgG1, kappa)
heavy 1: B10 heavy with T366W
heavy 2: B8 heavy 2
light: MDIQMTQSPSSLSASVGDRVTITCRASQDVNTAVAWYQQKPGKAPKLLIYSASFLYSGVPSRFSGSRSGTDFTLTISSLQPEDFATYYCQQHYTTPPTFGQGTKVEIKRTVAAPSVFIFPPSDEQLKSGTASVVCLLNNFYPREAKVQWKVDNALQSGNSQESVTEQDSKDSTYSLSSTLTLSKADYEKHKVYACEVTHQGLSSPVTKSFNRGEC
modifications: pAMF at F404 (EU), linked to LP8
B17: Conjugate 20 (D04-F404-LP31) (antibody, human IgG1, kappa)
heavy: B10 heavy
light: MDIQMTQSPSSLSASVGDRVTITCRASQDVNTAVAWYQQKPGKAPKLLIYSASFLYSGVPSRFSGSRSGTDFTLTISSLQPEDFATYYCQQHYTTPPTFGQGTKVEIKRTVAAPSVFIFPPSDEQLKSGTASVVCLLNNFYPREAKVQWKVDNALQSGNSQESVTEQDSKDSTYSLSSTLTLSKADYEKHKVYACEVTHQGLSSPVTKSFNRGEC
modifications: pAMF at F404 (EU), linked to LP31
B18: Conjugate 17 (D04-F404-LP14) (antibody, human IgG1, kappa)
heavy: B10 heavy
light: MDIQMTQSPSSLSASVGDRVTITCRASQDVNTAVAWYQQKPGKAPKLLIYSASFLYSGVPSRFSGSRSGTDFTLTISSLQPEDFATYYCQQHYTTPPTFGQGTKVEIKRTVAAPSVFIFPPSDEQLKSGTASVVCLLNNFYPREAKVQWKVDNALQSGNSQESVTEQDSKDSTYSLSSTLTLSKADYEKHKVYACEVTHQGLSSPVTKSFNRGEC
modifications: pAMF at F404 (EU), linked to LP14

Biological target: T1, human ROR1 (hROR1) (human, UniProt Q01973 30-937)
Assay: cell-based or functional assay

Point of comparison: B3, “Mino Nb-PBD, drug-conjugated 2° antibody Cell Killing EC50” value 0.0027 nM. Against it:
- B1 — within 1.5-fold, 0.0038 nM
- B2 — 1.6-fold higher, 0.0042 nM
- B4 — within 1.5-fold, 0.0023 nM

Point of comparison: B1, “Mino Nb-PBD, drug-conjugated 2° antibody Cell Killing Span” value 61%. Against it:
- B2 — lower, 59%
- B3 — higher, 65%
- B4 — higher, 66%

Biological target: receptor tyrosine kinase orphan receptor 1 (ROR1) on Ntera-2 cells (human, UniProt Q01973 30-937)
Assay: cell-based or functional assay

Point of comparison: B7, “cell killing EC50, NTERA-2 cells” value 0.085 nM. Against it:
- B5 — higher, > 10 nM
- B6 — higher, > 10 nM
- B8 — 3-fold lower, 0.028 nM
- B9 — 3.1-fold lower, 0.027 nM
- B10 — 35-fold higher, 2.96 nM
- B11 — 3-fold lower, 0.028 nM
- B12 — 3.9-fold lower, 0.022 nM
- B13 — 4.7-fold lower, 0.018 nM
- B14 — 5-fold lower, 0.017 nM
- B15 — 2-fold lower, 0.043 nM
- B16 — 3.5-fold lower, 0.024 nM
- B17 — higher, > 10 nM
- B18 — 2.8-fold lower, 0.03 nM

Point of comparison: B11, “cell killing Span, NTERA-2 cells” value 84%. Against it:
- B5 — lower, < 20%
- B6 — lower, < 20%
- B7 — lower, 56%
- B8 — higher, 88%
- B9 — higher, 88%
- B10 — higher, 97%
- B12 — lower, 83%
- B13 — higher, 87%
- B14 — higher, 85%
- B15 — lower, 83%
- B16 — higher, 89%
- B17 — not separable, > 60%
- B18 — lower, 77%

Biological target: T1, human ROR1 (hROR1)
Assay: flow cytometry, HCT116-hROR1 cells

Point of comparison: B3, “Bmax (MFI)” value 14600 MFI. Against it:
- B1 — higher, 15500 MFI
- B2 — higher, 15800 MFI
- B4 — higher, 15300 MFI

Point of comparison: B2, Kd 1.64 nM. Against it:
- B1 — within 1.5-fold, 1.22 nM
- B3 — within 1.5-fold, 1.7 nM
- B4 — 11-fold lower, 0.15 nM

Biological target: T2, human ROR1 Frizzled domain (hROR1-Fz) (human, UniProt Q01973 165-305)
T2 construct: Acro Biosystems, made in HEK293
Assay: SPR Biacore, IgG on anti-Fc, ROR1-Fz analyte
Summary of the method: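 Test antibodies captured on an anti-Fc surface (CM5 chip), then analyte bound for 180 s with 600 s dissociation at 25° C in HBS-EP+ buffer at 50 μL/min. Human ROR1 ECD, Frizzled or Kringle domain used as analyte; regeneration with 10 mM glycine pH 2.0.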

Point of comparison: B1, Kd 6.94 nM. Against it:
- B2 — 2.4-fold lower, 2.89 nM
- B3 — within 1.5-fold, 5.31 nM
- B4 — 6.1-fold lower, 1.13 nM

Point of comparison: B3, koff 0.000487 s⁻¹. Against it:
- B1 — 2.1-fold higher, 0.00101 s⁻¹
- B2 — within 1.5-fold, 0.000331 s⁻¹
- B4 — 2.7-fold lower, 0.000178 s⁻¹

Point of comparison: B1, kon 146000 M⁻¹ s⁻¹. Against it:
- B2 — within 1.5-fold, 114000 M⁻¹ s⁻¹
- B3 — 1.6-fold lower, 91700 M⁻¹ s⁻¹
- B4 — within 1.5-fold, 158000 M⁻¹ s⁻¹

— patent publication US20240058465A1 (SUTRO BIOPHARMA, published 2024)
